The results in this text go back to patent publication US20190307836A1 (Bicycle, published 2019).

Assay [1] addresses CD137 expressed on cells (CHO cells expressing CD137; Jurkat cells of the Promega CD137 luciferase reporter assay) (UniProt Q07011). Nature of the assay: cell-based or functional assay.
Assay [2] deals with T1, Recombinant human CD137 (R&D systems) (human, UniProt Q07011 24-186, biotinylated with EZ-Link Sulfo-NHS-LC-LC-Biotin).
T1 construct: Bought protein; also called human CD137 protein; TNFRSF9
T1 sequence (Q07011 24-186 limits assumed): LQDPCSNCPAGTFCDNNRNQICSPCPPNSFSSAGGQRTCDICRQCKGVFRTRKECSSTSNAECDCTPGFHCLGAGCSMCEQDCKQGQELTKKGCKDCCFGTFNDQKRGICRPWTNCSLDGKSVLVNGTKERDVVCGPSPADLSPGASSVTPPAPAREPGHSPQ
Briefly: SPR (Biacore), biotinylated human CD137 on streptavidin chip. The protocol:
The protein was desalted to remove uncoupled biotin using spin columns into PBS.
For analysis of peptide binding, a Biacore T200 or a Biacore 3000 instrument was used with a XanTec CMD500D chip. Streptavidin was immobilized on the chip using standard amine-coupling chemistry at 25° C. with HBS-N (10 mM HEPES, 0.15 M NaCl, pH 7.4) as the running buffer. Briefly, the carboxymethyl dextran surface was activated with a 7 min injection of a 1:1 ratio of 0.4 M 1-ethyl-3-(3-dimethylaminopropyl) carbodiimide hydrochloride (EDC)/0.1 M N-hydroxy succinimide (NHS) at a flow rate of 10 μl/min. For capture of streptavidin, the protein was diluted to 0.2 mg/ml in 10 mM sodium acetate (pH 4.5) and captured by injecting 120 μl of onto the activated chip surface. Residual activated groups were blocked with a 7 min injection of 1 M ethanolamine (pH 8.5) and biotinylated CD137 captured to a level of 270-1500 RU. Buffer was changed to PBS/0.05% Tween 20 and a dilution series of the peptides was prepared in this buffer with a final DMSO concentration of 0.5%. The top peptide concentration was 500 nM with 6 further 2-fold or 3-fold dilutions. The SPR analysis was run at 25° C. at a flow rate of 90 μl/min with 60 seconds association and 900 seconds dissociation. After each cycle a regeneration step (10 μl of 10 mM glycine pH 2) was employed. Data were corrected for DMSO excluded volume effects as needed. All data were double-referenced for blank injections and reference surface using standard processing procedures and data processing and kinetic fitting were performed using Scrubber software, version 2.0c (BioLogic Software). Data were fitted using simple 1:1 binding model allowing for mass transport effects where appropriate.

Another assay deals with T2, human EphA2 protein (human, UniProt P29317 25-534, limits assumed, biotinylated with EZ-Link Sulfo-NHS-LC-Biotin).
T2 construct: Construct not described
T2 sequence (P29317 25-534 limits assumed): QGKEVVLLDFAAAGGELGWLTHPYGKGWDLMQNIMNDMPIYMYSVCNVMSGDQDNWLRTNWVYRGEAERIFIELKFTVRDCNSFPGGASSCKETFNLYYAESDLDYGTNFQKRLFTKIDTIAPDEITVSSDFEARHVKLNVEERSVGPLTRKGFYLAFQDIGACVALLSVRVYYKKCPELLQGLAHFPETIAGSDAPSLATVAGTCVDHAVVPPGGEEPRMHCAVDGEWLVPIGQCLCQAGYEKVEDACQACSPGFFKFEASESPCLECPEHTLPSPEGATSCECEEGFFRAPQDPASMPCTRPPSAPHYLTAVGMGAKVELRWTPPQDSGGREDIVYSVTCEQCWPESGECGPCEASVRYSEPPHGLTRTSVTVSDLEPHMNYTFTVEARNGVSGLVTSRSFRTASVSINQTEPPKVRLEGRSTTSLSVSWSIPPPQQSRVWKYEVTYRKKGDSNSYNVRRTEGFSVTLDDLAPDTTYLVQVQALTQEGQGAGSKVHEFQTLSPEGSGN
Briefly: SPR (Biacore T200), biotinylated human EphA2 on streptavidin chip. The method, then: Streptavidin was immobilized on the chip using standard amine-coupling chemistry at 25° C. with HBS-N (10 mM HEPES, 0.15 M NaCl, pH 7.4) as the running buffer. Briefly, the carboxymethyl dextran surface was activated with a 7 min injection of a 1:1 ratio of 0.4 M 1-ethyl-3-(3-dimethylaminopropyl) carbodiimide hydrochloride (EDC)/0.1 M N-hydroxy succinimide (NHS) at a flow rate of 10 μl/min. […] Data were corrected for DMSO excluded volume effects. All data were double-referenced for blank injections and reference surface using standard processing procedures and data processing and kinetic fitting were performed using Scrubber software, version 2.0c (BioLogic Software). Data were fitted using simple 1:1 binding model allowing for mass transport effects where appropriate.
(In SPR one partner is held on a chip, and binding of the other changes the refractive index at the surface.)

A value given as a limit tells only on which side of the number the result lay.

Sequence of CD137 expressed on cells (CHO cells expressing CD137; Jurkat cells of the Promega CD137 luciferase reporter assay) (Q07011 24-255 limits assumed): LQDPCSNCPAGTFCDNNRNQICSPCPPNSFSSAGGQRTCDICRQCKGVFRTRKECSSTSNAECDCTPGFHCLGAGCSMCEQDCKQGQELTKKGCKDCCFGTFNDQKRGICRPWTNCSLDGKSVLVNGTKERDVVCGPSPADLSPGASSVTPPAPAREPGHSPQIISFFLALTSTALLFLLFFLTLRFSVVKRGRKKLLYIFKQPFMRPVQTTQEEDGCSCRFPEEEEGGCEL

B1: heterotandem bicyclic peptide complex BCY8942 (peptide)
peptide 1: AXDCXLVNPLCLHPDWXC
peptide 2: ACIEEGQYCFADPYXC
modifications: BCY8045: N-terminal acetyl; D-Ala8, Nle12; C-terminal Dap (diaminopropionic acid) bearing the linker; Ci, Cii, Ciii on TATA scaffold; BCY6169: N-terminal [PYA]-[B-Ala]-[Sar10]- (linker on PYA); HArg in the A-[HArg]-D extension; HyP1, dD10, HArg12; Ci, Cii, Ciii on TATA scaffold
By Kd is commonly meant the equilibrium constant for the complex coming apart. For the molecule B1, the Fold Induction over Background, CD137 reporter assay, co-culture with PC3 (EphA2) in assay [1] was below 2 fold. For the same molecule, the results for the dissociation constant (Kd) (in assay [2]; with human EphA2 protein) were 853 nM and 1.7 nM, respectively.
